Biological target: SARS-CoV-2 Delta Spike antigen (SARS-CoV-2 Delta)

Substance Anti-S1 antibody DZIF-10c has an EC50 of 6.9 nM.
Anti-S1 mAb ImdevimAb (antibody) gave an EC50 of 0.01 nM.
